In article PMC11574045, “A cofactor-induced repressive type of transcription factor condensation can be induced by synthetic peptides to suppress tumorigenesis” (The EMBO Journal, 2024):

Test system: HEK293FT cells transfected with TF library
Assay: Screening of TF condensates based on fluorescent puncta
Type: cell-based
Details: Figure 1B numerical data; TF library screen, one value per transcriptional factor
In short: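 HEK293FT cells were reverse-transfected with Flag- or GAL4-tagged TF plasmids (1.6 μg/ml, PEI). After 60 h, cells were cultured 12 h with or without glucose, then fixed and immunostained with anti-Flag or anti-GAL4 and Alexa 488 secondaries. Fluorescent puncta were imaged over fifty random fields per well by high-content imaging.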

Molecule	Z score of condensed fraction
TBX19 (protein, UniProt Q99ME7 1-446, looked up) T-box transcription factor …: MSELATQKAGEGTVSRLLNVVESELQAGREKGDPTEKQLQIILEDAPLWQRFKEVTNEMIVTKNGRRMFPVLKISVTGLDPNAMYSLLLDFVRTDSHRWKYVNGEWVPAGKPEVSSHSCVYIHPDSPNFGAHWMKAPISFSKVKLTNKLNGGGQIMLNSLHKYEPQVHIVRVGGAHRMVMNCSFPETQFIAVTAYQNEEITALKIKYNPFAKAFLDAKERNHLKDVPEAISESQHVTYSHLGGWILSNPDGVCTAANSNYQYATPLPLPAPHTHHGCEHYAGLRGHRQAPYPSAYMHRNHSPSVNLIESSSNNLQVFSGPDSWTSLSSTPHASILSVPHSNGPINPGPSPYPCLWTISNGGGGPVASGSEVHASTSGTILLGNPAVTSPSSLLPTQATTSAGVEVLGEPSLTSIAVSTWTAVASHPLPGWGGPGGAGRHSSSSLDS	1.015
TCF24 (protein, UniProt Q7RTU0 1-167, looked up) Transcription factor 24: MDRGRPAGSPLSASAEPAPLAAAIRDSRPGRTGPGPAGPGGGSRSGSGRPAAANAARERSRVQTLRHAFLELQRTLPSVPPDTKLSKLDVLLLATTYIAHLTRSLQDDAEAPADAGLGALRGDGYLHPVKKWPMRSRLYIGATGQFLKHSVSGEKTNHDNTPTDSQP	-0.9879
TCF21 (protein, UniProt O43680 1-179, looked up) Transcription factor 21: MSTGSLSDVEDLQEVEMLECDGLKMDSNKEFVTSNESTEESSNCENGSPQKGRGGLGKRRKAPTKKSPLSGVSQEGKQVQRNAANARERARMRVLSKAFSRLKTTLPWVPPDTKLSKLDTLRLASSYIAHLRQILANDKYENGYIHPVNLTWPFMVAGKPESDLKEVVTASRLCGTTAS	0.06751
TERF2 (protein, UniProt O35144 1-541, looked up) Telomeric repeat-binding …: MAAGAGTAGPASGPGVVRDPMASQPRKRPSREGGEGGEGERRSNTMAGGGGSSDSSGRAASRRASRSGGRARRGRHEPGLGGAAERGAGEARLEEAVNRWVLKFYFHEALRAFRSSRYRDFRQIRDIMQALLVRPLGKEHTVSRLLRVMQCLSRIEEGENLDCSFDMEAELTPLESAINVLEMIKTEFTLTDSMVESSRKLVKEAAVIICIKNKEFEKASKILKKYMSKDPTTQKLRTDLLNIIREKNLAHPVIQNFSYEVFQQKMLRFLESHLDDTEPYLLTMAKKALKSESAASSTMREEKHPEPVEKPLREPPSRQPQNPPATIGIRTLKAAFKALSTAQDSEAAFAKLDQKDLVLANLASPSSPAHKHKRPRKDEHESAAPAEGEGGSDRQPRNSPMTISRLLLEEDSQSTEPSPGLNSSHKAMSASKPRALNQPHPGEKKPKASKDKWNSPNGLEEKEVWLEEDQLFEVQAPGEDRSSSLTRKQKWTIEESEWVKDGVRKYGEGNWAAISKSYPFVNRTAVMIKDRWRTMKKLGMN	0.4642
TCEB2 (protein, UniProt Q15370 1-118, looked up) Elongin-B: MDVFLMIRRHKTTIFTDAKESSTVFELKRIVEGILKRPPDEQRLYKDDQLLDDGKTLGECGFTSQTARPQAPATVGLAFRADDTFEALCIEPFSSPPELPDVMKPQDSGSSANEQAVQ	-0.4277
BIF1 (protein, UniProt Q9Y371 1-365, looked up) Endophilin-B1: MNIMDFNVKKLAADAGTFLSRAVQFTEEKLGQAEKTELDAHLENLLSKAECTKIWTEKIMKQTEVLLQPNPNARIEEFVYEKLDRKAPSRINNPELLGQYMIDAGTEFGPGTAYGNALIKCGETQKRIGTADRELIQTSALNFLTPLRNFIEGDYKTIAKERKLLQNKRLDLDAAKTRLKKAKAAETRNSSEQELRITQSEFDRQAEITRLLLEGISSTHAHHLRCLNDFVEAQMTYYAQCYQYMLDLQKQLGSFPSNYLSNNNQTSVTPVPSVLPNAIGSSAMASTSGLVITSPSNLSDLKECSGSRKARVLYDYDAANSTELSLLADEVITVFSVVGMDSDWLMGERGNQKGKVPITYLELLN	-0.08025
TCF15 (protein, UniProt Q12870 1-199, looked up) Transcription factor 15: MAFALLRPVGAHVLYPDVRLLSEDEENRSESDASDQSFGCCEGPEAARRGPGPGGGRRAGGGGGAGPVVVVRQRQAANARERDRTQSVNTAFTALRTLIPTEPVDRKLSKIETVRLASSYIAHLANVLLLGDSADDGQPCFRAAGSAKGAVPAAADGGRQPRSICTFCLSNQRKGGGRRDLGGSCLKVRGVAPLRGPRR	0.7138
TCF25 (protein, UniProt Q9BQ70 1-676, looked up) Ribosome quality control …: MSRRALRRLRGEQRGQEPLGPGALHFDLRDDDDAEEEGPKRELGVRRPGGAGKEGVRVNNRFELINIDDLEDDPVVNGERSGCALTDAVAPGNKGRGQRGNTESKTDGDDTETVPSEQSHASGKLRKKKKKQKNKKSSTGEASENGLEDIDRILERIEDSTGLNRPGPAPLSSRKHVLYVEHRHLNPDTELKRYFGARAILGEQRPRQRQRVYPKCTWLTTPKSTWPRYSKPGLSMRLLESKKGLSFFAFEHSEEYQQAQHKFLVAVESMEPNNIVVLLQTSPYHVDSLLQLSDACRFQEDQEMARDLVERALYSMECAFHPLFSLTSGACRLDYRRPENRSFYLALYKQMSFLEKRGCPRTALEYCKLILSLEPDEDPLCMLLLIDHLALRARNYEYLIRLFQEWEAHRNLSQLPNFAFSVPLAYFLLSQQTDLPECEQSSARQKASLLIQQALTMFPGVLLPLLESCSVRPDASVSSHRFFGPNAEISQPPALSQLVNLYLGRSHFLWKEPATMSWLEENVHEVLQAVDAGDPAVEACENRRKVLYQRAPRNIHRHVILSEIKEAVAALPPDVTTQSVMGFDPLPPSDTIYSYVRPERLSPISHGNTIALFFRSLLPNYTMEGERPEEGVAGGLNRNQGLNRLMLAVRDMMANFHLNDLEAPHEDDAEGEGEWD	2.145
TCFL5 (protein, UniProt Q9UL49 1-500, looked up) Transcription factor-like 5 …: MSGPGPREPPPEAGAAGGEAAVEGAGGGDAALGEPGLSFTTTDLSLVEMTEVEYTQLQHILCSHMEAAADGELETRLNSALLAAAGPGAGAGGFAAGGQGGAAPVYPVLCPSALAADAPCLGHIDFQELRMMLLSEAGAAEKTSGGGDGARARADGAAKEGAGAAAAAAGPDGAPEARAKPAVRVRLEDRFNSIPAEPPPAPRGPEPPEPGGALNNLVTLIRHPSELMNVPLQQQNKCTALVKNKTAATTTALQFTYPLFTTNACSTSGNSNLSQTQSSSNSCSVLEAAKHQDIGLPRAFSFCYQQEIESTKQTLGSRNKVLPEQVWIKVGEAALCKQALKRNRSRMRQLDTNVERRALGEIQNVGEGATATQGAWQSSESSQANLGEQAQSGPQGGRSQRRERHNRMERDRRRRIRICCDELNLLVPFCNAETDKATTLQWTTAFLKYIQERHGDSLKKEFESVFCGKTGRRLKLTRPDSLVTCPAQGSLQSSPSMEIK	-0.869
TAF9 (protein, UniProt Q8VI33 1-264, looked up) Transcription initiation …: MESGKMASPKSMPKDAQMMAQILKDMGITEYEPRVINQMLEFAFRYVTTILDDAKIYSSHAKKATVDADDVRLAIQCRADQSFTSPPPRDFLLDIARQRNQTPLPLIKPYSGPRLPPDRYCLTAPNYRLKSLQKKAPAPAGRITVPRLSVGSVSSRPSTPTLGTPTPQTMSVSTKVGTPMSLTGQRFTVQMPASQSPAVKASIPATSTVQNVLINPSLIGSKNILITTNMVSQNTAESANALKRKREDDDDDDDDDDDDDYDNM	-0.7072
TBX6 (protein, UniProt O95947 1-436, looked up) T-box transcription factor …: MYHPRELYPSLGAGYRLGPAQPGADSSFPPALAEGYRYPELDTPKLDCFLSGMEAAPRTLAAHPPLPLLPPAMGTEPAPSAPEALHSLPGVSLSLENRELWKEFSSVGTEMIITKAGRRMFPACRVSVTGLDPEARYLFLLDVIPVDGARYRWQGRRWEPSGKAEPRLPDRVYIHPDSPATGAHWMRQPVSFHRVKLTNSTLDPHGHLILHSMHKYQPRIHLVRAAQLCSQHWGGMASFRFPETTFISVTAYQNPQITQLKIAANPFAKGFRENGRNCKRERDARVKRKLRGPEPAATEAYGSGDTPGGPCDSTLGGDIRESDPEQAPAPGEATAAPAPLCGGPSAEAYLLHPAAFHGAPSHLPTRSPSFPEAPDSGRSAPYSAAFLELPHGSGGSGYPAAPPAVPFAPHFLQGGPFPLPYTAPGGYLDVGSKPMY	-0.7283
TBX20 (protein, UniProt Q9UMR3 1-447, looked up) T-box transcription factor …: MEFTASPKPQLSSRANAFSIAALMSSGGSKEKEATENTIKPLEQFVEKSSCAQPLGELTSLDAHGEFGGGSGSSPSSSSLCTEPLIPTTPIIPSEEMAKIACSLETKELWDKFHELGTEMIITKSGRRMFPTIRVSFSGVDPEAKYIVLMDIVPVDNKRYRYAYHRSSWLVAGKADPPLPARLYVHPDSPFTGEQLLKQMVSFEKVKLTNNELDQHGHIILNSMHKYQPRVHIIKKKDHTASLLNLKSEEFRTFIFPETVFTAVTAYQNQLITKLKIDSNPFAKGFRDSSRLTDIERESVESLIQKHSYARSPIRTYGGEEDVLGDESQTTPNRGSAFTTSDNLSLSSWVSSSSSFPGFQHPQSLTALGTSTASIATPIPHPIQGSLPPYSRLGMPLTPSAIASSMQGSGPTFPSFHMPRYHHYFQQGPYAAIQGLRHSSAVMTPFV	0.6837
TBR1 (protein, UniProt Q16650 1-682, looked up) T-box brain protein 1: MQLEHCLSPSIMLSKKFLNVSSSYPHSGGSELVLHDHPIISTTDNLERSSPLKKITRGMTNQSDTDNFPDSKDSPGDVQRSKLSPVLDGVSELRHSFDGSAADRYLLSQSSQPQSAATAPSAMFPYPGQHGPAHPAFSIGSPSRYMAHHPVITNGAYNSLLSNSSPQGYPTAGYPYPQQYGHSYQGAPFYQFSSTQPGLVPGKAQVYLCNRPLWLKFHRHQTEMIITKQGRRMFPFLSFNISGLDPTAHYNIFVDVILADPNHWRFQGGKWVPCGKADTNVQGNRVYMHPDSPNTGAHWMRQEISFGKLKLTNNKGASNNNGQMVVLQSLHKYQPRLHVVEVNEDGTEDTSQPGRVQTFTFPETQFIAVTAYQNTDITQLKIDHNPFAKGFRDNYDTIYTGCDMDRLTPSPNDSPRSQIVPGARYAMAGSFLQDQFVSNYAKARFHPGAGAGPGPGTDRSVPHTNGLLSPQQAEDPGAPSPQRWFVTPANNRLDFAASAYDTATDFAGNAATLLSYAAAGVKALPLQAAGCTGRPLGYYADPSGWGARSPPQYCGTKSGSVLPCWPNSAAAAARMAGANPYLGEEAEGLAAERSPLPPGAAEDAKPKDLSDSSWIETPSSIKSIDSSDSGIYEQAKRRRISPADTPVSESSSPLKSEVLAQRDCEKNCAKDISGYYGFYSHS	-0.7739
